This is an account of results in publication PMC5793090 (Toxins, 2017).

Several values for one entry are separate records, joined by “and”; a condition that tells them apart may be missing. Equal values may be shown once.

The labels stand for the following.
B3: Recombinant human extracellular rLu/BCAM with Fc-tag (Fc fusion)
chain: EVRLSVPPLVEVMRGKSVILDCTPTGTHDHYMLEWFLTDRSGARPRLASAEMQGSELQVTMHDTRGRSPPYQLDSQGRLVLAEAQVGDERDYVCVVRAGAAGTAEATARLNVFAKPEATEVSPNKGTLSVMEDSAQEIATCNSRNGNPAPKITWYRNGQRLEVPVEMNPEGYMTSRTVREASGLLSLTSTLYLRLRKDDRDASFHCAAHYSLPEGRHGRLDSPTFHLTLHYPTEHVQFWVGSPSTPAGWVREGDTVQLLCRGDGSPSPEYTLFRLQDEQEEVLNVNLEGNLTLEGVTRGQSGTYGCRVEDYDAADDVQLSKTLELRVAYLDPLELSEGKVLSLPLNSSAVVNCSVHGLPTPALRWTKDSTPLGDGPMLSLSSITFDSNGTYVCEASLPTVPVLSRTQNFTLLVQGSPELKTAEIEPKADGSWREGDEVTLICSARGHPDPKLSWSQLGGSPAEPIPGRQGWVSSSLTLKVTSALSRDGISCEASNPHGNKRHVFHFGTVSPQTSQA
notes: also called rLu/BCAM-Fc; recombinant Lu/BCAM; source: bought: Hölzel Diagnostika Handels GmbH

In one data set the target is Lu12-Fc. Put plainly: SPR.
Data set [1] has as its target B3. Description: small-angle X-ray scattering (SAXS). Particulars: both partners purified.
Data set [2] has as its target B3. Put plainly: SEC. The conditions noted are these: both partners purified.
Data set [3] deals with T1, GST-CNF1 (full-length Cytotoxic Necrotizing Factor 1 of Escherichia coli as GST fusion) (Escherichia coli, UniProt Q47106 1-1014, DyLight488 Maleimide label in the flow cytometry experiments only).
T1 chain: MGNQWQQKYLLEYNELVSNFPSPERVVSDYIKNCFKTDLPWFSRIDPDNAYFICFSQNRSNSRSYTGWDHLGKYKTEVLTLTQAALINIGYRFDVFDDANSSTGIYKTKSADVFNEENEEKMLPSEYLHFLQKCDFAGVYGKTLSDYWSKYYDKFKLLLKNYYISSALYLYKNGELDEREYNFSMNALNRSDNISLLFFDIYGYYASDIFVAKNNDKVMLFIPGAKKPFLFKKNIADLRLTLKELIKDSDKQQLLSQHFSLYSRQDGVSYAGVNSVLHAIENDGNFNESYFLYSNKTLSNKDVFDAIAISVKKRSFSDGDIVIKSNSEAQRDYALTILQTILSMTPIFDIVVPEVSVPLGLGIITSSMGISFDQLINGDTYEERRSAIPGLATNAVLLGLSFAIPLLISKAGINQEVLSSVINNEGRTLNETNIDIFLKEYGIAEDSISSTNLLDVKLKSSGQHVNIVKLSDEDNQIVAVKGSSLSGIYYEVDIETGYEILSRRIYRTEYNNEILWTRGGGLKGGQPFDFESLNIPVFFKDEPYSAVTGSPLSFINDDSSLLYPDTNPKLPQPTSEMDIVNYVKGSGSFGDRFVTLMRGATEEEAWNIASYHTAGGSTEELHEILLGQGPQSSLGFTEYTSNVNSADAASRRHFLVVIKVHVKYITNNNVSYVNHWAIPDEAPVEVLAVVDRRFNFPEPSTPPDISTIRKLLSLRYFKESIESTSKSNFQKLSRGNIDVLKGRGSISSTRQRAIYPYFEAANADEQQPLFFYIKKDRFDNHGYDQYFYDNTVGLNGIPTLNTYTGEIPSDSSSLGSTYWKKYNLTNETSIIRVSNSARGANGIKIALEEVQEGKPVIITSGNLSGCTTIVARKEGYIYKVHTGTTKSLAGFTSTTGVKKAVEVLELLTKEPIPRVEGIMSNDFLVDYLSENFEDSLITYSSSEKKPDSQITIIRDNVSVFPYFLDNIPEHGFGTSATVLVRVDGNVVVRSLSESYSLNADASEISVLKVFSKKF
Description: SPR.

In data set [4] the target is T2, GST-CNF1 (full-length Cytotoxic Necrotizing Factor 1 of Escherichia coli as GST fusion) (Escherichia coli, UniProt Q47106 1-1014, DyLight488 Maleimide label in the flow cytometry experiments only).
T2 construct: also called full-length CNF1; full toxin
T2 sequence: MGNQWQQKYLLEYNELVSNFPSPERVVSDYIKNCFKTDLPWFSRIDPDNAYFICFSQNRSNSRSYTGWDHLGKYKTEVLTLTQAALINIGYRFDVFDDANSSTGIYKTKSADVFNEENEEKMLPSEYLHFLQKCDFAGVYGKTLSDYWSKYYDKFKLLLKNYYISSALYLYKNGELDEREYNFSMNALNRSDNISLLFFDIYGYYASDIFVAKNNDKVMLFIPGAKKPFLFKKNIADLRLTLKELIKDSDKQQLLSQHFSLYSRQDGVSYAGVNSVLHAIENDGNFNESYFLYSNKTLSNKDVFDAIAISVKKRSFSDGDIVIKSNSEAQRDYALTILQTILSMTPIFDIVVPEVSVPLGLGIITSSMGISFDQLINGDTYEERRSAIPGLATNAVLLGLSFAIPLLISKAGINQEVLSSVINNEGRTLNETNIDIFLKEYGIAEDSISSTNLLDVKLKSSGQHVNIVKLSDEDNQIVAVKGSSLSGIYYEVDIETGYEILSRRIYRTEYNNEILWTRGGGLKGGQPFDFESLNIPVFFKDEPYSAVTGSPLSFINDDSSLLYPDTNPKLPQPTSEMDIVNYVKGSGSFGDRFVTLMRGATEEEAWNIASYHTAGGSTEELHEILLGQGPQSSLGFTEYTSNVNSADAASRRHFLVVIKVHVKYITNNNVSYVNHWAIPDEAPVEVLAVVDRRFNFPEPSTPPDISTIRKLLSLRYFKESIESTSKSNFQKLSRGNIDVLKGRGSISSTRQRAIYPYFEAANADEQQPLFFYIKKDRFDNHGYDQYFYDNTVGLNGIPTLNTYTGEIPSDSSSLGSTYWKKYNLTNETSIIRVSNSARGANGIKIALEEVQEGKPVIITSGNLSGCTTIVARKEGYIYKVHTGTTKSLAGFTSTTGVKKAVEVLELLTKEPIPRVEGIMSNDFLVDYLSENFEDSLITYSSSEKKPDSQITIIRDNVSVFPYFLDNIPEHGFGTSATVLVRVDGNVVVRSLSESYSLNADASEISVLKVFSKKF
Put plainly: far-Western, overlay or dot blot; CNF proteins spotted on a nitrocellulose membrane, incubated with 5 µM rLu/BCAM in TBST for 30 min, then blocked with 5% milk; bound rLu/BCAM detected with an anti-Lu/BCAM antibody. Particulars: both partners purified.

The data set “SEC” deals with the molecule itself. Put plainly: SEC.

“GST-CNF1 (full-length Cytotoxic Necrotizing Factor 1 of Escherichia coli as GST fusion) (from UniProt Q47106 1-1014) (natural protein)”: the Kd in the data set with Lu12-Fc was found to be 2 nM.

B1: CNF1 (720–1014), GST-tag removed (domain or fragment)
chain: SIESTSKSNFQKLSRGNIDVLKGRGSISSTRQRAIYPYFEAANADEQQPLFFYIKKDRFDNHGYDQYFYDNTVGLNGIPTLNTYTGEIPSDSSSLGSTYWKKYNLTNETSIIRVSNSARGANGIKIALEEVQEGKPVIITSGNLSGCTTIVARKEGYIYKVHTGTTKSLAGFTSTTGVKKAVEVLELLTKEPIPRVEGIMSNDFLVDYLSENFEDSLITYSSSEKKPDSQITIIRDNVSVFPYFLDNIPEHGFGTSATVLVRVDGNVVVRSLSESYSLNADASEISVLKVFSKKF
notes: also called CNF1 catalytic unit
For B1, the “stoichiometry N” value is 1 CNF1 molecules per rLu/BCAM assembly and 2 CNF1 molecules per rLu/BCAM assembly in data set [1]; 6 Lu/BCAM per CNF1 in data set [2].

B2: Lu12-Fc (Fc fusion)
chain: EVRLSVPPLVEVMRGKSVILDCTPTGTHDHYMLEWFLTDRSGARPRLASAEMQGSELQVTMHDTRGRSPPYQLDSQGRLVLAEAQVGDERDYVCVVRAGAAGTAEATARLNVFAKPEATEVSPNKGTLSVMEDSAQEIATCNSRNGNPAPKITWYRNGQRLEVPVEMNPEGYMTSRTVREASGLLSLTSTLYLRLRKDDRDASFHCAAHYSLPEGRHGRLDSPTFH
For B2, in data set [3], the koff turned out to be 3e-05 s⁻¹. Regarding B3, in data set [4], the binding result is “binds”. Moreover, the “stoichiometry N” value in the data set “SEC” was found to be 6.

The term Kd denotes the concentration at which binding is half-saturated. The stoichiometry N is a count of units in the complex or per binding partner. As a reminder, the koff is a measure of how fast the partners let go of each other. A lower koff goes with slow dissociation.
